Columns and labels:
[1] = biological target: mesothelin (MSLN) on target cells (H226, MeT-5A) (UniProt Q13421 37-598, limits assumed); experiment: cell-based or functional assay
[2] = biological target: soluble mesothelin (sMSLN) (UniProt Q13421 296-580, limits assumed); experiment: cell-based or functional assay

Row | Binder | T-cell driven cytotoxicity assay: EC50 for killing high MSLN expressing target cells against EC50 for killing MeT-5A cells [1] [fold] | increase of EC50 for killing high MSLN expressing target cells in the presence of 50 ng/ml sMSLN [2] [fold] | increase of EC50 for killing high MSLN expressing target cells in the presence of 500 ng/ml sMSLN [2] [fold] | decrease of potency of T-cell driven target cell killing in the presence of 500 ng/ml soluble MSLN [2] [fold]
1 | PRO2562 (MATCH4) (other) chain 1: ALQMTQSPSSLSARVGDRVTIKCQASQSISNYLAWYQQKPGKPPKFLIYDASDLASGVPSRFSGSGSGRDFTLTISSLQPEDFATYYCQQVYDSNNVENVFGCGTKVTVLGGGGGSGGGGSGGGGSGGGGSQSQLVESGGGLVQPGGSLRLSCAVSGFSLSSYAMGWVRQAPGKCLEYIGYISKIGTTYYASWAKGRFTISKDNSKNTVYLQMNSLRAEDTAVYFCARGSSSGGYLDDGFDPWGQGTLVTVSSGGGGSGGGGSEVQLVESGGGLVQPGGSLRLSCAASGFSLSSYDMSWVRQAPGKGLAWIGASYASGPTYYASWAKGRFTISRDNSKNTVYLQMCSLRAEDTATYFCARGGWTGTSHSNIWGQGTLVTVSSGGGSGGGSGGGSGEVQLVESGGGLVQPGGSLRLSCAASGFSLSSYAMNWVRQAPGKCLEWIGHINAGDIAYYATWAKGRFTISRDNSKNTVYLQMNSLRAEDTAVYFCARGAGGFSTGPFKLWGQGTLVTVSS chain 2: ALQMTQSPSSLSARVGDRVTIKCQASQSISNYLAWYQQKPGKPPKFLIYDASDLASGVPSRFSGSGSGRDFTLTISSLQPEDFATYYCQQVYDSNNVENVFGCGTKVTVLGGGGGSGGGGSGGGGSGGGGSQSQLVESGGGLVQPGGSLRLSCAVSGFSLSSYAMGWVRQAPGKCLEYIGYISKIGTTYYASWAKGRFTISKDNSKNTVYLQMNSLRAEDTAVYFCARGSSSGGYLDDGFDPWGQGTLVTVSSGGGGSGGGGSAFELTQSPSSLSASVGDRVTITCQASESINSRLAWYQQKPGQPPKLLIYDASDLTSGVPSRFSGSGSGTDFTLTISCLQPEDFATYYCQGYGGSSTTTFGCGTKLTVLGGGSGGSGGSGGSGDIQMTQSPSSLSASVGDRVTITCQSSQSVFSNNYLAWFQQKPGQSPKRLIYSASTLASGVPSRFSGSGSGTDFTLTISSLQPEDFATYYCLGSYACSSADCYVFGTGTKVTVLG | ≥ 25 | ≤ 6 | ≤ 40 | –
2 | PRO2100 (biMSLNlow affinity x CD3 x hSA) (other) chain 1: DIQMTQSPSSLSASVGDRVTITCQASQNIYSNLAWYQQKPGKAPKLLIYDASDLASGVPSRFSGSGSGTDFTLTISSLQPEDFATYYCQQVRSSSDIDNPFGTGTKVTVLGGGGGSGGGGSGGGGSGGGGSQVQLVESGGGLVQPGGSLRLSCAASGFSLSSYAMGWVRQAPGKGLEWIGYISTIANTYYASWAKGRFTISRDNSKNTVYLQMNSLRAEDTAVYYCAREIRSGWVDYGFSIWGQGTLVTVSSGGGGSGGGGSEVQLVESGGGLVQPGGSLRLSCAASGFSLSSYDMSWVRQAPGKGLAWIGASYASGPTYYASWAKGRFTISRDNSKNTVYLQMNSLRAEDTATYFCARGGWTGTSHSNIWGQGTLVTVSSGGGSGGGSEVQLVESGGGLVQPGGSLRLSCAASGFSFSSSYWICWVRQAPGKCLEWVGCVFTGDGTTYYASWAKGRFTISRDNSKNTVYLQMNSLRAEDTATYFCARPVSVYYYGMDLWGQGTLVTVSS chain 2: DIQMTQSPSSLSASVGDRVTITCQASQNIYSNLAWYQQKPGKAPKLLIYDASDLASGVPSRFSGSGSGTDFTLTISSLQPEDFATYYCQQVRSSSDIDNPFGTGTKVTVLGGGGGSGGGGSGGGGSGGGGSQVQLVESGGGLVQPGGSLRLSCAASGFSLSSYAMGWVRQAPGKGLEWIGYISTIANTYYASWAKGRFTISRDNSKNTVYLQMNSLRAEDTAVYYCAREIRSGWVDYGFSIWGQGTLVTVSSGGGGSGGGGSDVVMTQSPSSLSASVGDRVTITCQASQIISSRSAWYQQKPGQPPKLLIYQASKLASGVPSRFSGSGSGTDFTLTISSLQPEDFATYYCQCTYIDSNFGAFGCGTKLTVLGGGSGGSDIQMTQSPSSLSASVGDRVTITCQSSQSVFSNNYLAWFQQKPGQSPKRLIYSASTLASGVPSRFSGSGSGTDFTLTISSLQPEDFATYYCLGSYACSSADCYVFGTGTKVTVLG | – | – | – | 17
